In patent publication US20160304622A1 (GENEFRONTIER, published 2016):

Key:
Test in all cases: immunoblotting after reducing SDS-PAGE
[1] = target: T1, recombinant human ADAM12 (Mochida Pharmaceutical Co., Ltd.) (human, UniProt O43184 208-708, limits assumed)
T1 sequence (looked up): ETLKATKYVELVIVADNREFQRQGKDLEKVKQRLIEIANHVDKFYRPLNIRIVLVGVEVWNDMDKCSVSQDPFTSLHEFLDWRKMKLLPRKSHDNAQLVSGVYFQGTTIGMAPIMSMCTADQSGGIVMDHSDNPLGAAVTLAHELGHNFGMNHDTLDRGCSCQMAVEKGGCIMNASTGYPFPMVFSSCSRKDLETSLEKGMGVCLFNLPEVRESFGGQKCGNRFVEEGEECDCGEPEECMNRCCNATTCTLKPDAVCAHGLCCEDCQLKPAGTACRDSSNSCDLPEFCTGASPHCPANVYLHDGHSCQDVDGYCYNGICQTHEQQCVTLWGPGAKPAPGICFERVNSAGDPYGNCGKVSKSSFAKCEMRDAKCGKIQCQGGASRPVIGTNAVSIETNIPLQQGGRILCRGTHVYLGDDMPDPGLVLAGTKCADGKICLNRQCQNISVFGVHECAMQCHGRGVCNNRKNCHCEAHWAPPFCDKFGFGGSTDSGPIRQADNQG
Excerpt: (§1) Recombinant proteins of human ADAMTS1 (R&D Systems), ADAMTS4, ADAMTS5 (R&D Systems), ADAMTS15 (R&D Systems), ADAM10 (R&D Systems), ADAM12 (Mochida Pharmaceutical Co., Ltd., Tokyo, Japan), ADAM17 (R&D Systems) and MMP-13 (Millipore, Billerica, Mass.) and purified human MMP-1, MMP-2, MMP-3 and MMP-9 (Daiichi Fine Chemical, Co., Ltd., Toyama, Japan) were subjected to sodium dodecyl sulfate-polyacrylamide gel electrophoresis (SDS-PAGE) under reducing conditions, and the samples resolved on the gels were transferred onto polyvinylidene difluoride (PVDF) membranes. […] After washing with phosphate buffered saline containing 0.1% Tween 20, the membranes were reacted with horseradish peroxidase-conjugated secondary antibody against human IgG (Invitrogen, Carlsbad, Calif.) for 1 h at room temperature. A chemiluminescence reagent (Pierce ECL western blotting substrate; Thermo Fisher Scientific, Waltham, Mass.) was used to make the labeled protein bands visible. All the samples were also examined on silver-stained gels, which were prepared by silver stain kit (Cosmo Bio Co., Ltd, […].).

[2] = target: recombinant human ADAM17 (R&D Systems) (human, UniProt P78536 215-671, limits assumed)
recombinant human ADAM17 (R&D Systems), sequence (P78536 215-671 limits assumed): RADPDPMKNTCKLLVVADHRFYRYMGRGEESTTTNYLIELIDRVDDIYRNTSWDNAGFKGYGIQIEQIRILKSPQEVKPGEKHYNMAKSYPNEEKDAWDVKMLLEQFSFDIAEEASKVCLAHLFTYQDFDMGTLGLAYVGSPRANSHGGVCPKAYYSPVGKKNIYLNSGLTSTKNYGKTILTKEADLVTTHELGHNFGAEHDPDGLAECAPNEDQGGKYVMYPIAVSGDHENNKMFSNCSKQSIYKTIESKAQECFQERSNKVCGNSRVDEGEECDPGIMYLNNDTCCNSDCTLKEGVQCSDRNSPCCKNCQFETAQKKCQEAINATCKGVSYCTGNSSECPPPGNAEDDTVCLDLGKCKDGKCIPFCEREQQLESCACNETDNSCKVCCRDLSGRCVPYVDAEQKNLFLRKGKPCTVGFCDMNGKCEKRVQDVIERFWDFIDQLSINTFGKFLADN
Excerpt: as §1

[3] = target: T2, recombinant human ADAMTS1 (R&D Systems) (human, UniProt Q9UHI8 253-967, limits assumed)
T2 sequence (looked up): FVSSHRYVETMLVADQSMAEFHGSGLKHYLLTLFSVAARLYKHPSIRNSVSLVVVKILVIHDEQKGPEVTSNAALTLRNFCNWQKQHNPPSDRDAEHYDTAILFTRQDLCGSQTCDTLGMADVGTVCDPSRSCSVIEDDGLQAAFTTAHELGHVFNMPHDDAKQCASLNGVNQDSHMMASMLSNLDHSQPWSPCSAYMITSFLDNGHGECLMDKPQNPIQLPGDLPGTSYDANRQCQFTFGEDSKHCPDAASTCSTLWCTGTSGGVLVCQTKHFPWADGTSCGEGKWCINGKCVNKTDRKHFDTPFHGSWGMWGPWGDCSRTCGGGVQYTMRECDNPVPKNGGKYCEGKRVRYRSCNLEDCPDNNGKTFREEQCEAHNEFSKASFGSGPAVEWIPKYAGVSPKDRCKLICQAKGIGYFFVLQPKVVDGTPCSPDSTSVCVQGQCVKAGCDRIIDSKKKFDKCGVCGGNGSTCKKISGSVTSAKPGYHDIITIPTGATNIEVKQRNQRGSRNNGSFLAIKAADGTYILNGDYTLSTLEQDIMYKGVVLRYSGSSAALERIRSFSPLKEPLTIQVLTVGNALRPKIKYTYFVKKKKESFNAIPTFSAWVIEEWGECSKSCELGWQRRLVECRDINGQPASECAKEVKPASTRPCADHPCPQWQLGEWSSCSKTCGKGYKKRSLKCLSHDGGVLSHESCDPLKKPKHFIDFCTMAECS
Excerpt: as §1

[4] = target: purified human MMP-3 (Daiichi Fine Chemical) (human, UniProt P08254 18-477, limits assumed)
purified human MMP-3 (Daiichi Fine Chemical), sequence (P08254 18-477 limits assumed): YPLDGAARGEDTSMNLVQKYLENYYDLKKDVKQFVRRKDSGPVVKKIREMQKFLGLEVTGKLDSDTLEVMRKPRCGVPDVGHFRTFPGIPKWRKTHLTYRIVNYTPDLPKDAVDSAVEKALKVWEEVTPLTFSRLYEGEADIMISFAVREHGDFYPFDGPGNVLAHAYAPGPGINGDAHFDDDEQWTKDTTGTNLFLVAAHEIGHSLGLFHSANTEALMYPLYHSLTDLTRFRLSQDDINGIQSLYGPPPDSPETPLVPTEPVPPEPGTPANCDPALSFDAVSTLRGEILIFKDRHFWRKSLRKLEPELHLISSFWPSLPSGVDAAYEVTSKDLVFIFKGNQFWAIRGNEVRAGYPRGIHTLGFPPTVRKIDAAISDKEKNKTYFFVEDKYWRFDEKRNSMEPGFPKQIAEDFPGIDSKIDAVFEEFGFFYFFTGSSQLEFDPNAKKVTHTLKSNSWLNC
Excerpt: as §1

Measured: binding result

B1: Fab of clone 237-53 (Fab, V domains shown)
VH: QVQLVQSGAEVKKPGSSVKVSCKASGGTFSSFAISWVRQAPGQGLEWMGGIFPIFGQANYAQKFQGRVTITADESTSTAYMELSSLRSEDTAVYYCARFSDWWEWQMDYWGQGTLVTVSS
VL: DIVMTQSPDSLAVSLGERATINCRSSQSILYSSNNNYLAWYQQKPGQPPKLLIHTASARESGVPDRFSGSGSGTDFTLTISSLQAEDVAVYYCQQYYSVSITFGQGTKVEIKR
no binding (tested: 5 µg/ml): all assays above
